Results taken from patent US20120107299.

Test system: GST protein [GST: P08515]
Sequence (P08515 whole entry): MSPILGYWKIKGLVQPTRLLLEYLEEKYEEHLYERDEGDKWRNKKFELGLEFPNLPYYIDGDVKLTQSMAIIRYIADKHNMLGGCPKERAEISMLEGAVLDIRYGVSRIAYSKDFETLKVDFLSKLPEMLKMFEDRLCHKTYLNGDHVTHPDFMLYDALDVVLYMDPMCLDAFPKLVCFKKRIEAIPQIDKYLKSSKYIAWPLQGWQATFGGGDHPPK

FLAG-PTEN
in vitro dephosphorylation of PTEN, Western blot with anti-PTEN antibodies specific to each phosphorylation: dephosphorylation of PTEN was not recognized in the GST protein
